Reference: the Immune Epitope Database (IEDB)

Key:
HLA-A*02:01 = assay: IEDB peptide-MHC binding, purified MHC/competitive/fluorescence; ≥ and ≤ were set here for values at or beyond the usual limits of such assays
HLA-B*15:01 [1] = assay: as above
HLA-B*15:03 = assay: IEDB peptide-MHC binding, purified MHC/competitive/radioactivity; filed as Kd, often an IC50 or EC50 that approximates it; ≥ and ≤ were set here for values at or beyond the usual limits of such assays; details: source organism: Vaccinia virus WR
HLA-B*40:01 = assay: as above; details: source organism: Dengue virus 1 Singapore/S275/1990
HLA-B*44:02 = assay: as above
HLA-B*44:03 = assay: as above
HLA-A*32:01 = assay: as above; details: source organism: Vaccinia virus WR
HLA-A*30:01 = assay: as above; details: source organism: Vaccinia virus WR
HLA-B*08:01 = assay: as above; details: source organism: Vaccinia virus WR
HLA-B*15:01 [2] = assay: as above; details: source organism: Vaccinia virus WR
HLA-A*03:01 = assay: IEDB peptide-MHC binding, purified MHC/competitive/fluorescence; filed as Kd, often an IC50 or EC50 that approximates it; ≥ and ≤ were set here for values at or beyond the usual limits of such assays
HLA-B*15:01 [3] = assay: as above; details: source organism: Salmonella enterica subsp. enterica serovar Typhi
HLA-A*24:02 = assay: IEDB peptide-MHC binding, purified MHC/competitive/fluorescence; ≥ and ≤ were set here for values at or beyond the usual limits of such assays
[4] = source organism: Vaccinia virus Copenhagen
[5] = source organism: Dengue virus 1 Singapore/S275/1990
[6] = source organism: Dengue virus 1 Brazil/97-11/1997
[7] = source organism: Dengue virus 3 Martinique/1243/1999
[8] = source organism: Dengue virus 2 Jamaica/1409/1983
[9] = source organism: Zaire ebolavirus
[10] = source organism: Vaccinia virus WR

In the case of VVANVIGLS, the IC50 (HLA-A*02:01; [4]) is reported as 26600 nM and the IC50 (HLA-B*15:01 [1]; [4]) is reported as 46900 nM.

For RQMVNDMIF, the Kd (HLA-B*15:03) was 1.25 nM.

In the case of AENHHHATM, the Kd (HLA-B*40:01) is reported as 10.1 nM, the Kd (HLA-B*44:02; [5]) is reported as 27.3 nM and the Kd (HLA-B*44:03; [5]) is reported as 115 nM.

With YDEDNPYKTW the Kd (HLA-B*44:02; [6]) was 470 nM.

With KMSFLPIIF the Kd (HLA-A*32:01) was 6.72 nM and the Kd (HLA-B*15:03) was 0.08 nM.

In the case of LYRPNIPLK, the Kd (HLA-A*30:01) is reported as 3.45 nM, the Kd (HLA-A*32:01) is reported as no less than 77800 nM and the Kd (HLA-B*08:01) is reported as no less than 33300 nM. The Kd (HLA-B*15:01 [2]) was no less than 55800 nM and the Kd (HLA-B*15:03) was no less than 69200 nM.

KEEHNSTWHY showed a Kd (HLA-B*44:02; [7]) of 183 nM and a Kd (HLA-B*44:03; [7]) of 10500 nM.

With KLLSHFYPA the Kd (HLA-A*30:01) was 3300 nM, the Kd (HLA-A*32:01) was 129 nM and the Kd (HLA-B*08:01) was 81 nM. For the same sequence, the Kd (HLA-B*15:01 [2]) was 38.7 nM and the Kd (HLA-B*15:03) was 5.4 nM.

SEMIIPKIY gave a Kd (HLA-B*44:02; [5]) of 8.61 nM and a Kd (HLA-B*44:03; [5]) of 12.8 nM.

AMAAAGMMY was tested, and the Kd (HLA-A*03:01; source organism: Salmonella enterica subsp. enterica serovar Typhi) was 698 nM and the Kd (HLA-B*15:01 [3]) was 332 nM.

VGRVNPGTY showed an IC50 (HLA-A*24:02; source organism: Variola virus) of 5450 nM and an IC50 (HLA-B*15:01 [1]; source organism: Variola virus) of 29700 nM.

For WEGNPGRFW, the Kd (HLA-B*44:02; [8]) was 12.9 nM and the Kd (HLA-B*44:03; [8]) was 89.4 nM.

FQQTNAMVT was tested, and the IC50 (HLA-A*02:01; [9]) was 11000 nM and the IC50 (HLA-B*15:01 [1]; [9]) was 36100 nM.

KEAVEDERFW showed a Kd (HLA-B*44:02; [6]) of 45.4 nM and a Kd (HLA-B*44:03; [6]) of 305 nM.

In the case of KQYKFYNQI, the Kd (HLA-A*30:01) is reported as 1340 nM, the Kd (HLA-A*32:01) is reported as 10600 nM and the Kd (HLA-B*08:01) is reported as no less than 77700 nM. It also gave a Kd (HLA-B*15:01 [2]) of 6630 nM and a Kd (HLA-B*15:03) of 121 nM.

With CMKTFFGWK the Kd (HLA-A*03:01; source organism: Influenza A virus (A/Hong Kong/1774/99(H3N2))) was 35.4 nM.

With FKINIFMAF the Kd (HLA-B*08:01) was 10600 nM and the Kd (HLA-B*15:03) was 10.2 nM.

Sequence NERGKSLLF has a Kd (HLA-B*44:02; [7]) of 467 nM and a Kd (HLA-B*44:03; [7]) of 122 nM.

IETPNELSF was tested, and the Kd (HLA-B*15:03) was 288 nM.

With CMIRWLGGI the IC50 (HLA-A*02:01; [10]) was 428 nM, the IC50 (HLA-A*24:02; [10]) was 4000 nM and the IC50 (HLA-B*15:01 [1]; [10]) was 30300 nM.

In the case of EEEQTLTILI, the Kd (HLA-B*44:02; [8]) is reported as 17.3 nM and the Kd (HLA-B*44:03; [8]) is reported as 128 nM.
